What all share (experiment): cryo-EM structure
Conditions in all cases: remark: other sources report otherwise

Assay [1] has as its target T1, human DNA polymerase θ helicase domain (residues 1-894) (human), O75417.
The target of assay [2] is T1, human DNA polymerase θ helicase domain …. This is another data set of the same source.
For assay [3] the target is unchanged. This is another data set of the same source.

Several values for one entry are separate records, joined by “and”; a condition that tells them apart may be missing. Equal values may be shown once.

B1: human DNA polymerase θ helicase domain (residues 1-894), O75417 1-894 (domain or fragment)
chain: MNLLRRSGKRRRSESGSDSFSGSGGDSSASPQFLSGSVLSPPPGLGRCLKAAAAGECKPTVPDYERDKLLLANWGLPKAVLEKYHSFGVKKMFEWQAECLLLGQVLEGKNLVYSAPTSAGKTLVAELLILKRVLEMRKKALFILPFVSVAKEKKYYLQSLFQEVGIKVDGYMGSTSPSRHFSSLDIAVCTIERANGLINRLIEENKMDLLGMVVVDELHMLGDSHRGYLLELLLTKICYITRKSASCQADLASSLSNAVQIVGMSATLPNLELVASWLNAELYHTDFRPVPLLESVKVGNSIYDSSMKLVREFEPMLQVKGDEDHVVSLCYETICDNHSVLLFCPSKKWCEKLADIIAREFYNLHHQAEGLVKPSECPPVILEQKELLEVMDQLRRLPSGLDSVLQKTVPWGVAFHHAGLTFEERDIIEGAFRQGLIRVLAATSTLSSGVNLPARRVIIRTPIFGGRPLDILTYKQMVGRAGRKGVDTVGESILICKNSEKSKGIALLQGSLKPVRSCLQRREGEEVTGSMIRAILEIIVGGVASTSQDMHTYAACTFLAASMKEGKQGIQRNQESVQLGAIEACVMWLLENEFIQSTEASDGTEGKVYHPTHLGSATLSSSLSPADTLDIFADLQRAMKGFVLENDLHILYLVTPMFEDWTTIDWYRFFCLWEKLPTSMKRVAELVGVEEGFLARCVKGKVVARTERQHRQMAIHKRFFTSLVLLDLISEVPLREINQKYGCNRGQIQSLQQSAAVYAGMITVFSNRLGWHNMELLLSQFQKRLTFGIQRELCDLVRVSLLNAQRARVLYASGFHTVADLARANIVEVEVILKNAVPFKSARKAVDEEEEAVEERRNMRTIWVTGRKGLTEREAAALIVEEARMILQQDLVEM
B1: the stoichiometry N was 2 in assay [1]; 2 and 4 in assay [2]; 2 in assay [3].

(Values after PMC12009414.)
